Laboratory results as given in the supplement of paper PMC9732359.
± gives the uncertainty stated by the source.

Assay: protein stability index of a GFP-peptide fusion (yeast GPS) (PSI 1-4); higher = more stable; sorted into four equal gates, so the index is relative within each strain
In short: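 Plasmids isolated from each sorting gate were PCR-amplified and Illumina-sequenced, and barcodes assigned the reads to strains. The gates, four of equal size, were set by GFP/Cherry fluorescence ratio on mid-log cultures in leucine-free medium. These cultures were yeast carrying a pooled library of tiled 17-residue yeast protein peptides fused downstream of GFP on a plasmid that also expresses Cherry. The protein stability index is the sum of every gate's read frequency times its gate number.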

Sequence: VENIERVVMMKYDRKVP [RPO21]
- protein stability index (doa10∆): 2.29 ± 0.17
- protein stability index (pdr5∆): 2.67 ± 0.2
- protein stability index (san1∆): 2.13 ± 0.19
- protein stability index (ubr1∆): 2.36 ± 0.085

Sequence: VLRKQKRYTVKKALAKA [RPL14A]
- protein stability index (doa10∆): 2.08 ± 0.14
- protein stability index (pdr5∆): 2.14 ± 0.1
- protein stability index (ubr1∆): 1.55 ± 0.19

Sequence: YSPTSPSYSPTSPSYSP [RPO21]
- protein stability index (doa10∆): 2.756 ± 0.027
- protein stability index (pdr5∆): 2.976 ± 0.026
- protein stability index (san1∆): 2.87 ± 0.024
- protein stability index (ubr1∆): 2.868 ± 0.02

Sequence: HTLDIINVLTDQNPIQV [RPS5]
- protein stability index (doa10∆): 1.88 ± 0.066
- protein stability index (pdr5∆): 2.33 ± 0.077
- protein stability index (san1∆): 2.12 ± 0.096
- protein stability index (ubr1∆): 1.86 ± 0.055

Sequence: ETKSWINESAENFSNGI [MED1]
- protein stability index (doa10∆): 3.04 ± 0.062
- protein stability index (pdr5∆): 2.72 ± 0.047
- protein stability index (san1∆): 2.74 ± 0.056
- protein stability index (ubr1∆): 2.77 ± 0.042

Sequence: GKRHIFDVNTLCLMTWK [CDC53]
- protein stability index (doa10∆): 1.25 ± 0.061
- protein stability index (pdr5∆): 1.75 ± 0.066
- protein stability index (san1∆): 1.44 ± 0.14
- protein stability index (ubr1∆): 2.08 ± 0.085

Sequence: DAELMADEEEEIVDTYQ [ISW2]
- protein stability index (doa10∆): 1.32 ± 0.15
- protein stability index (pdr5∆): 1.3 ± 0.27
- protein stability index (ubr1∆): 1.24 ± 0.25

Sequence: GQHKNNTSLNINGWKFE [SWP82]
- protein stability index (doa10∆): 3.09 ± 0.075
- protein stability index (pdr5∆): 3.21 ± 0.074
- protein stability index (san1∆): 3.05 ± 0.063
- protein stability index (ubr1∆): 2.99 ± 0.077

Sequence: ADAKAFLDSMAQKYASI [FAS2]
- protein stability index (doa10∆): 3.07 ± 0.083
- protein stability index (pdr5∆): 3.19 ± 0.086
- protein stability index (san1∆): 3.12 ± 0.047
- protein stability index (ubr1∆): 2.94 ± 0.049

Sequence: VDAYRRLENKLSEIESL [SRP68]
- protein stability index (doa10∆): 1.4 ± 0.078
- protein stability index (pdr5∆): 1.48 ± 0.073
- protein stability index (san1∆): 1.57 ± 0.11
- protein stability index (ubr1∆): 1.68 ± 0.062

Sequence: TSVIQDLSEKILNDIET [BRR2]
- protein stability index (doa10∆): 2.89 ± 0.1
- protein stability index (pdr5∆): 3.3 ± 0.11
- protein stability index (san1∆): 3.21 ± 0.061
- protein stability index (ubr1∆): 3.09 ± 0.076

Sequence: KFADGFLIHSGQPVNDF [RPS3]
- protein stability index (doa10∆): 2.67 ± 0.059
- protein stability index (pdr5∆): 3.07 ± 0.097
- protein stability index (san1∆): 3.22 ± 0.074
- protein stability index (ubr1∆): 3.06 ± 0.087

Sequence: PQAVTITSIMDDLALPY [ITC1]
- protein stability index (doa10∆): 2.85 ± 0.077
- protein stability index (pdr5∆): 2.98 ± 0.062
- protein stability index (san1∆): 2.72 ± 0.059
- protein stability index (ubr1∆): 3.02 ± 0.046

Sequence: ESDTGLAPSHLWDIMGD [RPT1]
- protein stability index (doa10∆): 2.91 ± 0.16
- protein stability index (san1∆): 3.06 ± 0.12

Sequence: NGNLTSNQLISNYAASN [SWI1]
- protein stability index (doa10∆): 3.13 ± 0.12
- protein stability index (pdr5∆): 2.89 ± 0.1
- protein stability index (san1∆): 2.98 ± 0.11
- protein stability index (ubr1∆): 3.1 ± 0.055

Sequence: LAELINMTTIADRNDDD [SRB6]
- protein stability index (doa10∆): 2.73 ± 0.066
- protein stability index (pdr5∆): 2.64 ± 0.078
- protein stability index (san1∆): 2.75 ± 0.062
- protein stability index (ubr1∆): 2.78 ± 0.076

Sequence: TPSDLSESGSKLNVDQF [POP1]
- protein stability index (doa10∆): 3.46 ± 0.098
- protein stability index (pdr5∆): 3.4 ± 0.094
- protein stability index (san1∆): 3.19 ± 0.072
- protein stability index (ubr1∆): 3.21 ± 0.1

Sequence: HTDVSSSLEARYFFYLS [RPN3]
- protein stability index (doa10∆): 2.68 ± 0.083
- protein stability index (pdr5∆): 3.23 ± 0.1
- protein stability index (san1∆): 2.72 ± 0.11
- protein stability index (ubr1∆): 2.85 ± 0.076

Sequence: FFTNPNKKRPSSKKVFS [YOR098C/NUP1]
- protein stability index (doa10∆): 2.85 ± 0.059
- protein stability index (pdr5∆): 3.1 ± 0.054
- protein stability index (san1∆): 3.06 ± 0.046
- protein stability index (ubr1∆): 3 ± 0.05

Sequence: RRLPEDESYARAYRIIR [QCR7]
- protein stability index (doa10∆): 2.81 ± 0.056
- protein stability index (pdr5∆): 2.72 ± 0.061
- protein stability index (san1∆): 2.53 ± 0.043
- protein stability index (ubr1∆): 2.42 ± 0.043

Sequence: IVVQLNGRLNKCGVISP [RPS22A]
- protein stability index (doa10∆): 3.25 ± 0.19
- protein stability index (pdr5∆): 3.35 ± 0.14
- protein stability index (san1∆): 2.98 ± 0.093
- protein stability index (ubr1∆): 3.49 ± 0.079

Sequence: RQYVGQLAPSSVDPQSS [DIS3]
- protein stability index (doa10∆): 2.69 ± 0.05
- protein stability index (pdr5∆): 3.06 ± 0.059
- protein stability index (san1∆): 2.92 ± 0.063
- protein stability index (ubr1∆): 2.62 ± 0.055

Sequence: EEGINKFKKEKFDIIIV [SRP54]
- protein stability index (doa10∆): 2.58 ± 0.05
- protein stability index (pdr5∆): 2.61 ± 0.042
- protein stability index (san1∆): 2.92 ± 0.043
- protein stability index (ubr1∆): 2.69 ± 0.057

Sequence: IQMNNSLQNNLQNNINN [SNF11]
- protein stability index (doa10∆): 3.35 ± 0.093
- protein stability index (pdr5∆): 3.32 ± 0.088
- protein stability index (san1∆): 3.06 ± 0.087
- protein stability index (ubr1∆): 3.31 ± 0.064

Sequence: NDFANNLPKEGDIVLTR [CSL4]
- protein stability index (doa10∆): 2.89 ± 0.15
- protein stability index (pdr5∆): 3.32 ± 0.17
- protein stability index (san1∆): 2.44 ± 0.12
- protein stability index (ubr1∆): 2.97 ± 0.19

Sequence: LAANYLNIKPLLDAGCK [SKP1]
- protein stability index (doa10∆): 1.83 ± 0.076
- protein stability index (pdr5∆): 2.19 ± 0.081
- protein stability index (san1∆): 1.57 ± 0.12
- protein stability index (ubr1∆): 2.23 ± 0.09

Sequence: SVAEKEEIRSQIDHFKS [SWI3]
- protein stability index (doa10∆): 1.73 ± 0.046
- protein stability index (pdr5∆): 2.42 ± 0.084
- protein stability index (san1∆): 2.8 ± 0.07
- protein stability index (ubr1∆): 2.65 ± 0.055

Sequence: SAAINNEDARAIFNNEF [RPN4]
- protein stability index (pdr5∆): 3.21 ± 0.23
- protein stability index (san1∆): 3.04 ± 0.27

Sequence: GTGRAVARIPRVGGGGT [RPL4A]
- protein stability index (san1∆): 2.68 ± 0.21

Sequence: QPIVTGTSVISMKYDNG [PRE4]
- protein stability index (doa10∆): 2.1 ± 0.25
- protein stability index (pdr5∆): 2.69 ± 0.23
- protein stability index (san1∆): 1.93 ± 0.15
- protein stability index (ubr1∆): 2 ± 0.2

Sequence: GEGPFTVKFKHMDYDGN [YMR129W/POM152]
- protein stability index (doa10∆): 2.79 ± 0.11
- protein stability index (pdr5∆): 2.86 ± 0.068
- protein stability index (san1∆): 2.78 ± 0.11
- protein stability index (ubr1∆): 2.78 ± 0.059

Sequence: MPGSQINSPMPQQAQMQ [SNF2]
- protein stability index (doa10∆): 2.9 ± 0.081
- protein stability index (pdr5∆): 2.87 ± 0.096
- protein stability index (san1∆): 3.05 ± 0.07
- protein stability index (ubr1∆): 2.95 ± 0.097

Sequence: GHLPEVSSKCNDIHLRF [ECM29]
- protein stability index (doa10∆): 2.69 ± 0.11
- protein stability index (pdr5∆): 2.92 ± 0.082
- protein stability index (ubr1∆): 3.17 ± 0.17

Sequence: AIIGLKSGTSHDAIFSI [SNF12]
- protein stability index (doa10∆): 2.56 ± 0.11
- protein stability index (pdr5∆): 2.65 ± 0.082
- protein stability index (san1∆): 2.5 ± 0.069
- protein stability index (ubr1∆): 2.96 ± 0.17

Sequence: KTGTKPAAVFTETLKHD [RPL4A]
- protein stability index (doa10∆): 2.24 ± 0.077
- protein stability index (pdr5∆): 2.19 ± 0.17
- protein stability index (san1∆): 1.74 ± 0.15
- protein stability index (ubr1∆): 2.54 ± 0.11

Sequence: EKGENPSCVYNLIGVIT [UBP6]
- protein stability index (doa10∆): 2.64 ± 0.072
- protein stability index (pdr5∆): 2.79 ± 0.093
- protein stability index (san1∆): 3.07 ± 0.081
- protein stability index (ubr1∆): 3.06 ± 0.1

Sequence: FMLSDDEGMESIEMEEE [RRI2]
- protein stability index (doa10∆): 2.59 ± 0.22
- protein stability index (pdr5∆): 3.78 ± 0.29
- protein stability index (san1∆): 3.38 ± 0.097

Sequence: IIVFGYPESISNELIEH [YDL088C/ASM4]
- protein stability index (doa10∆): 2.12 ± 0.066
- protein stability index (pdr5∆): 2.78 ± 0.049
- protein stability index (san1∆): 2.63 ± 0.058
- protein stability index (ubr1∆): 2.75 ± 0.054

Sequence: DWFTYSYFYRRIHVNPS [BRR2]
- protein stability index (doa10∆): 1.86 ± 0.047
- protein stability index (pdr5∆): 1.28 ± 0.038
- protein stability index (san1∆): 1.53 ± 0.057
- protein stability index (ubr1∆): 1.52 ± 0.029

Sequence: SSVEMLLDVVKGTEASN [YDL116W/NUP84]
- protein stability index (doa10∆): 2.89 ± 0.071
- protein stability index (pdr5∆): 3.1 ± 0.091
- protein stability index (san1∆): 2.55 ± 0.052
- protein stability index (ubr1∆): 2.9 ± 0.063

Sequence: YVDFVPMYKELWINYIK [POP4]
- protein stability index (doa10∆): 2.33 ± 0.065
- protein stability index (pdr5∆): 2.42 ± 0.056
- protein stability index (san1∆): 2.62 ± 0.068
- protein stability index (ubr1∆): 2.7 ± 0.047

Sequence: ETELPTLSLPDSQDYIL [SMC1]
- protein stability index (doa10∆): 3.1 ± 0.043
- protein stability index (pdr5∆): 3.19 ± 0.054
- protein stability index (san1∆): 3.11 ± 0.037
- protein stability index (ubr1∆): 3.29 ± 0.055

Sequence: TDLESKSRMINFLDAPG [SNU114]
- protein stability index (doa10∆): 2.65 ± 0.078
- protein stability index (pdr5∆): 2.95 ± 0.094
- protein stability index (san1∆): 2.71 ± 0.067
- protein stability index (ubr1∆): 2.8 ± 0.047

Sequence: EIDTILSTLRMEADPSL [RPN9]
- protein stability index (doa10∆): 3.04 ± 0.24
- protein stability index (pdr5∆): 3.04 ± 0.21
- protein stability index (san1∆): 2.56 ± 0.13
- protein stability index (ubr1∆): 2.67 ± 0.087

Sequence: PNFFLTLISENWWHSEF [BRR2]
- protein stability index (doa10∆): 2.8 ± 0.22
- protein stability index (pdr5∆): 2.27 ± 0.11
- protein stability index (san1∆): 2.59 ± 0.092
- protein stability index (ubr1∆): 2.85 ± 0.25

Sequence: NTIRQNVTSSGDHNKLR [YML103C/NUP188]
- protein stability index (doa10∆): 3.12 ± 0.17
- protein stability index (pdr5∆): 3.04 ± 0.16
- protein stability index (san1∆): 3.21 ± 0.075
- protein stability index (ubr1∆): 2.98 ± 0.097

Sequence: KDQALIGTINSIVHINS [SIR2]
- protein stability index (doa10∆): 1.69 ± 0.035
- protein stability index (pdr5∆): 1.66 ± 0.032
- protein stability index (san1∆): 1.75 ± 0.049
- protein stability index (ubr1∆): 1.41 ± 0.027

Sequence: MNVTPLDELQWKSPEWI [MED6]
- protein stability index (doa10∆): 3.1 ± 0.13
- protein stability index (pdr5∆): 3.14 ± 0.1
- protein stability index (san1∆): 3.19 ± 0.061
- protein stability index (ubr1∆): 3.37 ± 0.21

Sequence: DDVTCDKLSVSEISDGK [SIN4]
- protein stability index (doa10∆): 2.97 ± 0.073
- protein stability index (pdr5∆): 3.11 ± 0.078
- protein stability index (san1∆): 2.81 ± 0.08
- protein stability index (ubr1∆): 3.29 ± 0.058

Sequence: VNEIMYKCTAAMEKYLL [MTW1]
- protein stability index (doa10∆): 2.19 ± 0.046
- protein stability index (pdr5∆): 2.44 ± 0.06
- protein stability index (san1∆): 2.4 ± 0.07
- protein stability index (ubr1∆): 2.29 ± 0.056
